This is an account of results in patent publication US20040186053A1.

For test [1], the target named is factor Xa (UniProt P00742). Nature of the test: cell-based or functional assay.
Test [2] addresses factor Xa (UniProt P00742). The test can be described thus: cell-based or functional assay. The source holds these as a separate data set.

Substitutions are numbered along the chain they refer to. Names may count otherwise.

On to “antithrombin III (from UniProt P01008 33-464)”, for which, in the test with factor Xa [1], the t1/2 of inhibition of factor Xa by antithrombin III with PZ, cephalin and Ca++ ions (bioassay) came to 35 min.
As to “thrombin-cleaved PZ (PZT) (from UniProt P22891 84-400)”, the Apparent Inhibition (%) of factor Xa, one-stage coagulation assay; incubation factor Xa 120 sec, PZT 120 sec with factor Xa [1] was determined as 0%.
Take “human protein Z (PZ), isolated from citrated fresh frozen plasma (from UniProt P22891 41-400)”: in the test with factor Xa [1], the Apparent Inhibition (%) of factor Xa, one-stage coagulation assay; incubation factor Xa 15 sec, PZ 120 sec is 70%; the Apparent Inhibition (%) of factor Xa, one-stage coagulation assay; incubation factor Xa 30 sec, PZ 120 sec came out at 71%; the Apparent Inhibition (%) of factor Xa, one-stage coagulation assay; incubation factor Xa 60 sec, PZ 120 sec was found to be 73%; the Apparent Inhibition (%) of factor Xa, one-stage coagulation assay; incubation factor Xa 90 sec, PZ 120 sec was 76%. In addition, in the test with factor Xa [1], the Apparent Inhibition (%) of factor Xa, one-stage coagulation assay; incubation factor Xa 120 sec, PZ 0 sec was 0%; the Apparent Inhibition (%) of factor Xa, one-stage coagulation assay; incubation factor Xa 120 sec, PZ 15 sec stood at 50%; the Apparent Inhibition (%) of factor Xa, one-stage coagulation assay; incubation factor Xa 120 sec, PZ 30 sec was determined as 61%; the Apparent Inhibition (%) of factor Xa, one-stage coagulation assay; incubation factor Xa 120 sec, PZ 60 sec came out at 72%. For the same molecule, in the test with factor Xa [1], the Apparent Inhibition (%) of factor Xa, one-stage coagulation assay; incubation factor Xa 120 sec, PZ 90 sec was found to be 76%; the Apparent Inhibition (%) of factor Xa, one-stage coagulation assay; incubation factor Xa 120 sec, PZ 120 sec turned out to be 78%; the Apparent Inhibition (%) of factor Xa, one-stage coagulation assay; incubation factor Xa 120 sec, PZ 120 sec w/o Ca++ is 0%; the Apparent Inhibition (%) of factor Xa, one-stage coagulation assay; incubation factor Xa 120 sec, PZ 120 sec w/o cephalin turned out to be 0%. Also, in the test with factor Xa [1], the Apparent factor Xa inhibition by inclusion of PZ during preincubation, plasma treated with preimmune IgG (clotting time) was found to be 76% and the molar ratio (PZ:factor Xa) from PZ dose/response of ZPI-mediated factor Xa inhibition, amidolytic assay (mol PZ per mol factor Xa) is 1.4.
As to “tissue factor pathway inhibitor (TFPI) (from UniProt P10646 29-304)”, the inhibition of the chromogenic activity of the factor Xa preparations in the test with factor Xa [1] is > 99%.

B1: human protein Z-dependent protease inhibitor (ZPI), purified from human plasma (protein)
chain: LAPSPQSPETPAPQNQTSRVVQAPKEEEEDEQEASEEKASEEEKAWLMASRQQLAKETSNFGFSLLRKISMRHDGNMVFSPFGMSLAMTGLMLGATGPTETQIKRGLHLQALKPTKPGLLPSLFKGLRETLSRNLELGLTQGSFAFIHKDFDVKETFFNLSKRYFDTECVPMNFRNASQAKRLMNHYINKETRGKIPKLFDEINPETKLILVDYILFKGKWLTPFDPVFTEVDTFHLDKYKTIKVPMMYGAGKFASTFDKNFRCHVLKLPYQGNATMLVVLMEKMGDHLALEDYLTTDLVETWLRNMKTRNMEVFFPKFKLDQKYEMHELLRQMGIRRIFSPFADLSELSATGRNLQVSRVLQRTVIEVDERGTEAVAGILSEITAYSMPPVIKVDRPFHFMIYEETSGMLLFLGRVVNPTLL
modifications: Plasma glycoprotein with five potential N-linked glycosylation sites; the glycans are not carried by the letters.
B1: in the test with factor Xa [2], the Maximal factor Xa inhibition, amidolytic assay, reached within <1 minute (with PZ, Ca++ ions, cephalin) came to 70%; the Maximal factor Xa inhibition, bioassay, reached within <1 minute (with PZ, Ca++ ions, cephalin) was found to be 97%; the factor Xa amidolytic activity that persists at relatively high concentrations of ZPI was 20%; the stoichiometry (ZPI:factor Xa) from ZPI dose/response, factor Xa amidolytic assay with PZ, CaCl2 and cephalin (mol ZPI per mol factor Xa) amounted to 1.2.

B2: rZPI(Y387R), recombinant ZPI with tyrosine 387 changed to arginine (protein, UniProt Q9UK55 22-444 with Y387R, looked up)
Protein Z-dependent protease inhibitor: B1 chain with Y387R
B2 yielded a ZPI activity of conditioned media, two-stage assay of PZ-dependent factor Xa inhibition in the test with factor Xa [2] of 21 mU/mL.

B3: rZPI(WT), recombinant wild-type ZPI expressed in CHO cells (protein, UniProt Q9UK55 22-444, looked up)
Protein Z-dependent protease inhibitor: B1 chain
For B3, the ZPI activity of conditioned media, two-stage assay of PZ-dependent factor Xa inhibition in the test with factor Xa [2] is 375 mU/mL.

B4: rZPI(Y387A), recombinant ZPI with tyrosine 387 changed to alanine (protein, UniProt Q9UK55 22-444 with Y387A, looked up)
Protein Z-dependent protease inhibitor: B1 chain with Y387A
Regarding B4, the ZPI activity of conditioned media, two-stage assay of PZ-dependent factor Xa inhibition in the test with factor Xa [2] was < 10 mU/mL.
